Measurements reported in US12522842B2, “Glutamine synthetase mutant having glufosinate resistance and application thereof and cultivation method therefor” (GEVOTO LLC, priority 2019, dated 2026).
Substitutions are numbered along the chain they refer to.

System: glutamine synthetase-deficient Escherichia coli
Assay: Growth of glutamine synthetase-deficient E. coli transformed with GS mutants in M9 medium containing glufosinate
Assay type: cell-based
Conditions: for growth of transformed GS-deficient E. coli (normal GS enzymatic activity): medium containing 0 mM glufosinate
Excerpt: According to the sequences of the nucleic acid molecules provided in Example 4, the nucleic acid sequences encoding rice GS mutants OsA, OsC, OsD, OsE, OsF, OsG, OsH, OsI, OsK, OsP, OST, OsV, and OsY were synthesized using chemical synthesis method. Restriction digestion sites (Pac1 and Sbf1) were introduced at both ends thereof, and after restriction digestion, they were linked under the action of ligase to an expression vector (such as pADV7 vector, whose structure is shown in FIG. 4) that was subjected to the same restriction digestion treatment. Then, glutamine synthetase-deficient Escherichia coli was transformed with the resultant. After verification, positive clones were picked up and inoculated in M9 medium containing different concentrations of glufosinate to grow, and the growth status of defective Escherichia coli was observed.
With wild-type rice GS (its amino acid sequence shown in SEQ ID NO. 1 and its encoding gene shown in SEQ ID NO. 4) as a negative control, the glufosinate resistance for the GS mutant OsA (S59A, wherein the amino acid S at site 59 of the rice GS is mutated into A), OsC (S59C), OsD (S59D), OsE (S59E), OsF (S59F), OsG (S59G), OsH (S59H), OsI (S591), OsK (S59K), OsP (S59P), OsT (S59T), OsV (S59V), OsY (S59Y) was detected.
With reference to the detection method of Experimental Example 1, glufosinate resistance of the rice GS mutant OsGR (S59G and H296R, the amino acid S at site 59 of rice GS is mutated into G and the amino acid H at site 296 is mutated into R), the wheat GS mutant TaGR (S59G and H296R, the amino acid S at site 59 of wheat GS is mutated into G and the amino acid H at site 296 is mutated into R), the soybean GS mutant GmGR (S59G and H296R, the amino acid S at site 59 of soybean GS is mutated into G and the amino acid H at site 296 is mutated into R) provided in Example 2 was verified.
With reference to Experimental example 1, the glufosinate resistance of rice GS mutants OA, OD, OE, OG, OI, OK, OM, OP, OQ, OR, OS, OT, and OV provided in Example 3 was detected according to the following method.
With wild-type rice GS as a negative control, the glufosinate resistance of GS mutants OA (H296A, amino acid H at site 296 of rice GS is mutated into A), OD (H296D), OE (H296E), OG (H296G), OI (H2961), OK (H296K), OM (H296M), OP (H296P), OQ (H296Q), OR (H296R), OS (H296S), OT (H296T), OV (H296V) was detected.

[1] = medium containing 10 mM glufosinate
[2] = medium with 50 mM/100 mM glufosinate
[3] = media containing 2 mM, 5 mM, 10 mM, and 20 mM glufosinate

B1: OsK (protein)
chain: MASLTDLVNLNLSDTTEKIIAEYIWIGGSGMDLRSKARTLSGPVTDPSKLPKWNYDGSKTGQAPGEDSEVILYPQAIFKDPFRKGNNILVMCDCYTPAGEPIPTNKRHNAAKIFSSPEVASEEPWYGIEQEYTLLQKDINWPLGWPVGGFPGPQGPYYCGIGADKSFGRDIVDSHYKACLYAGINISGINGEVMPGQWEFQVGPSVGISAGDQVWVARYILERITEIAGVVVSFDPKPIPGDWNGAGAHTNYSTKSMRNDGGYEIIKSAIEKLKLRHKEHISAYGEGNERRLTGRHETADINTFSWGVANRGASVRVGRETEQNGKGYFEDRRPASNMDPYIVTSMIAETTIIWKP
modifications: OsK
- growth of transformed GS-deficient E. coli (normal GS enzymatic activity): could normally grow
- growth of transformed E. coli (glufosinate resistance) [1]: significantly superior to that of the negative control
- growth of transformed E. coli (glufosinate resistance) [2]: significantly grew

B2: OsP (protein)
chain: B1 chain with K59P
modifications: OsP
- growth of transformed GS-deficient E. coli (normal GS enzymatic activity): could normally grow
- growth of transformed E. coli (glufosinate resistance) [1]: significantly superior to that of the negative control
- growth of transformed E. coli (glufosinate resistance) [2]: significantly grew

B3: OsV (protein)
chain: B1 chain with K59V
modifications: OsV
- growth of transformed GS-deficient E. coli (normal GS enzymatic activity): could normally grow
- growth of transformed E. coli (glufosinate resistance) [1]: significantly superior to that of the negative control

B4: OsA (protein)
chain: B1 chain with K59A
modifications: OsA
- growth of transformed GS-deficient E. coli (normal GS enzymatic activity): could normally grow
- growth of transformed E. coli (glufosinate resistance) [1]: significantly superior to that of the negative control

B5: OsC (protein)
chain: B1 chain with K59C
modifications: OsC
- growth of transformed GS-deficient E. coli (normal GS enzymatic activity): could normally grow
- growth of transformed E. coli (glufosinate resistance) [1]: significantly superior to that of the negative control
- growth of transformed E. coli (glufosinate resistance) [2]: significantly grew

B6: OsD (protein)
chain: B1 chain with K59D
modifications: OsD
- growth of transformed GS-deficient E. coli (normal GS enzymatic activity): could normally grow
- growth of transformed E. coli (glufosinate resistance) [1]: significantly superior to that of the negative control
- growth of transformed E. coli (glufosinate resistance) [2]: significantly grew

B7: OsE (protein)
chain: B1 chain with K59E
modifications: OsE
- growth of transformed GS-deficient E. coli (normal GS enzymatic activity): could normally grow
- growth of transformed E. coli (glufosinate resistance) [1]: significantly superior to that of the negative control

B8: OsF (protein)
chain: B1 chain with K59F
modifications: OsF
- growth of transformed GS-deficient E. coli (normal GS enzymatic activity): could normally grow
- growth of transformed E. coli (glufosinate resistance) [1]: significantly superior to that of the negative control
- growth of transformed E. coli (glufosinate resistance) [2]: significantly grew

B9: OsG (protein)
chain: B1 chain with K59G
modifications: OsG
- growth of transformed GS-deficient E. coli (normal GS enzymatic activity): could normally grow
- growth of transformed E. coli (glufosinate resistance) [1]: significantly superior to that of the negative control
- growth of transformed E. coli (glufosinate resistance) [2]: significantly grew

B10: OsI (protein)
chain: B1 chain with K59I
modifications: OsI
- growth of transformed GS-deficient E. coli (normal GS enzymatic activity): could normally grow
- growth of transformed E. coli (glufosinate resistance) [1]: significantly superior to that of the negative control
- growth of transformed E. coli (glufosinate resistance) [2]: significantly grew

B11: GmGS_WT: wild-type soybean glutamine synthetase, SEQ ID NO. 3, control (protein)
chain: MSLLSDLINLNLSDTTEKVIAEYIWIGGSGMDLRSKARTLPGPVSDPSKLPKWNYDGSSTGQAPGEDSEVIIYPQAIFRDPFRRGNNILVICDTYTPAGEPIPTNKRHDAAKVFSHPDVVAEETWYGIEQEYTLLQKDIQWPLGWPVGGFPGPQGPYYCGVGADKAFGRDIVDAHYKACLYAGINISGINGEVMPGQWEFQVGPSVGISAGDEVWAARYILERITEIAGVVVSFDPKPIQGDWNGAGAHTNYSTKSMRNDGGYEVIKTAIEKLGKRHKEHIAAYGEGNERRLTGRHETADINTFLWGVANRGASVRVGRDTEKAGKGYFEDRRPASNMDPYVVTSMIADTTILWKP
modifications: Glycine max
notes: 3, control
- growth of transformed E. coli (glufosinate resistance) [3]: could hardly grow
- growth of transformed GS-deficient E. coli (normal GS enzymatic activity): could normally grow

B12: TaGR (protein)
chain: MALLTDLLNLDLTDSTEKIIAEYIWIGGSGMDLRSKARTLPGPVTDPSKLPKWNYDGSGTGQAPGEDSEVILYPQAIFKDPFRKGNNILVMCDCYTPAGVPIPTNKRYNAAKIFSNPDVAKEEPWYGIEQEYTLLQKDINWPLGWPVGGFPGPQGPYYCSIGADKSFGRDIVDSHYKACLFAGVNISGINGEVMPGQWEFQVGPTVGISAGDQVWVARYLLERITEIAGVVVTFDPKPIPGDWNGAGAHTNYSTESMRKDGGFKVIVDAVEKLKLKHKEHIAAYGEGNERRLTGKRETADINTFSWGVANRGASVRVGRETEQNGKGYFEDRRPASNMDPYVVTSMIAETTILWKP
modifications: TaGR
- growth of transformed E. coli (glufosinate resistance) [3]: significantly grew
- growth of transformed GS-deficient E. coli (normal GS enzymatic activity): could normally grow

B13: GmGR (protein)
chain: B11 chain with S59G, H296R
modifications: GmGR
- growth of transformed E. coli (glufosinate resistance) [3]: significantly grew
- growth of transformed GS-deficient E. coli (normal GS enzymatic activity): could normally grow
